Results: patent US20210171613A1 (NATIONAL RESEARCH COUNCIL OF CANADA, published 2021)
Positions count from the first letter of the chain named. Numbers in names are those of the source.

B1: Parent A26.8 VHH (VHH, not shown: small tags and cut ends)
VHH: QVKLEESGGGLVQAGGSLRLSCAASERTFSRYPVAWFRQAPGAEREFVAVISSTGTSTYYADSVKGRFTISRDNAKVTVYLQMNNLKREDTAVYFCAVNSQRTRLQDPNEYDYWGQGTQVTVSS
B2: A26.8-T56R, Q101K, T103R (VHH, not shown: small tags and cut ends)
VHH: B1 VHH with T56R, Q101K, T103R
notes: also called lead triple mutant; best triple mutant
B3: A26.8-T56R, T103R (VHH, not shown: small tags and cut ends)
VHH: B1 VHH with T56R, T103R
notes: also called lead double mutant; best double mutant
B4: A26.8 VHH mutant E110Q (VHH, not shown: small tags and cut ends)
VHH: B1 VHH with E110Q
B5: A26.8 VHH mutant D107R (VHH, not shown: small tags and cut ends)
VHH: B1 VHH with D107R
B6: A26.8 VHH mutant R104W (VHH, not shown: small tags and cut ends)
VHH: B1 VHH with R104W
B7: A26.8-T103R (VHH, not shown: small tags and cut ends)
VHH: B1 VHH with T103R
B8: A26.8-T103K (VHH, not shown: small tags and cut ends)
VHH: B1 VHH with T103K
B9: A26.8 VHH mutant D107Y (VHH, not shown: small tags and cut ends)
VHH: B1 VHH with D107Y
B10: A26.8-T56R (VHH, not shown: small tags and cut ends)
VHH: B1 VHH with T56R
B11: A26.8-Q101K (VHH, not shown: small tags and cut ends)
VHH: B1 VHH with Q101K
B12: A26.8 VHH mutant D107N (VHH, not shown: small tags and cut ends)
VHH: B1 VHH with D107N
B13: A26.8-T56R, Q101K (VHH, not shown: small tags and cut ends)
VHH: B1 VHH with T56R, Q101K
B14: A26.8 VHH mutant T54W (VHH, not shown: small tags and cut ends)
VHH: B1 VHH with T54W
B15: A26.8-Q101K,T103R (VHH, not shown: small tags and cut ends)
VHH: B1 VHH with Q101K, T103R
B16: A26.8-N109R (VHH, not shown: small tags and cut ends)
VHH: B1 VHH with N109R
B17: A26.8-T56R, T103K (VHH, not shown: small tags and cut ends)
VHH: B1 VHH with T56R, T103K
B18: A26.8-Q101K,T103M (VHH, not shown: small tags and cut ends)
VHH: B1 VHH with Q101K, T103M
B19: A26.8-T56R, Q101K, T103M (VHH, not shown: small tags and cut ends)
VHH: B1 VHH with T56R, Q101K, T103M
B20: A26.8-Q101K,T103K (VHH, not shown: small tags and cut ends)
VHH: B1 VHH with Q101K, T103K
B21: A26.8-T56R, Q101K, T103K (VHH, not shown: small tags and cut ends)
VHH: B1 VHH with T56R, Q101K, T103K
B22: A26.8-T56I (VHH, not shown: small tags and cut ends)
VHH: B1 VHH with T56I
B23: A26.8-T54R (VHH, not shown: small tags and cut ends)
VHH: B1 VHH with T54R
B24: A26.8 VHH mutant T54Y (VHH, not shown: small tags and cut ends)
VHH: B1 VHH with T54Y
B25: A26.8-T103W (VHH, not shown: small tags and cut ends)
VHH: B1 VHH with T103W
B26: A26.8-T58K (VHH, not shown: small tags and cut ends)
VHH: B1 VHH with T58K
B27: A26.8-T56R, T103M (VHH, not shown: small tags and cut ends)
VHH: B1 VHH with T56R, T103M
B28: A26.8-T103M (VHH, not shown: small tags and cut ends)
VHH: B1 VHH with T103M

These binders were tested against T1, Clostridium difficile toxin A (TcdA) (Clostridium difficile, UniProt P16154 1-2710) (assay: cell-based or functional assay).
T1 sequence (P16154 whole entry): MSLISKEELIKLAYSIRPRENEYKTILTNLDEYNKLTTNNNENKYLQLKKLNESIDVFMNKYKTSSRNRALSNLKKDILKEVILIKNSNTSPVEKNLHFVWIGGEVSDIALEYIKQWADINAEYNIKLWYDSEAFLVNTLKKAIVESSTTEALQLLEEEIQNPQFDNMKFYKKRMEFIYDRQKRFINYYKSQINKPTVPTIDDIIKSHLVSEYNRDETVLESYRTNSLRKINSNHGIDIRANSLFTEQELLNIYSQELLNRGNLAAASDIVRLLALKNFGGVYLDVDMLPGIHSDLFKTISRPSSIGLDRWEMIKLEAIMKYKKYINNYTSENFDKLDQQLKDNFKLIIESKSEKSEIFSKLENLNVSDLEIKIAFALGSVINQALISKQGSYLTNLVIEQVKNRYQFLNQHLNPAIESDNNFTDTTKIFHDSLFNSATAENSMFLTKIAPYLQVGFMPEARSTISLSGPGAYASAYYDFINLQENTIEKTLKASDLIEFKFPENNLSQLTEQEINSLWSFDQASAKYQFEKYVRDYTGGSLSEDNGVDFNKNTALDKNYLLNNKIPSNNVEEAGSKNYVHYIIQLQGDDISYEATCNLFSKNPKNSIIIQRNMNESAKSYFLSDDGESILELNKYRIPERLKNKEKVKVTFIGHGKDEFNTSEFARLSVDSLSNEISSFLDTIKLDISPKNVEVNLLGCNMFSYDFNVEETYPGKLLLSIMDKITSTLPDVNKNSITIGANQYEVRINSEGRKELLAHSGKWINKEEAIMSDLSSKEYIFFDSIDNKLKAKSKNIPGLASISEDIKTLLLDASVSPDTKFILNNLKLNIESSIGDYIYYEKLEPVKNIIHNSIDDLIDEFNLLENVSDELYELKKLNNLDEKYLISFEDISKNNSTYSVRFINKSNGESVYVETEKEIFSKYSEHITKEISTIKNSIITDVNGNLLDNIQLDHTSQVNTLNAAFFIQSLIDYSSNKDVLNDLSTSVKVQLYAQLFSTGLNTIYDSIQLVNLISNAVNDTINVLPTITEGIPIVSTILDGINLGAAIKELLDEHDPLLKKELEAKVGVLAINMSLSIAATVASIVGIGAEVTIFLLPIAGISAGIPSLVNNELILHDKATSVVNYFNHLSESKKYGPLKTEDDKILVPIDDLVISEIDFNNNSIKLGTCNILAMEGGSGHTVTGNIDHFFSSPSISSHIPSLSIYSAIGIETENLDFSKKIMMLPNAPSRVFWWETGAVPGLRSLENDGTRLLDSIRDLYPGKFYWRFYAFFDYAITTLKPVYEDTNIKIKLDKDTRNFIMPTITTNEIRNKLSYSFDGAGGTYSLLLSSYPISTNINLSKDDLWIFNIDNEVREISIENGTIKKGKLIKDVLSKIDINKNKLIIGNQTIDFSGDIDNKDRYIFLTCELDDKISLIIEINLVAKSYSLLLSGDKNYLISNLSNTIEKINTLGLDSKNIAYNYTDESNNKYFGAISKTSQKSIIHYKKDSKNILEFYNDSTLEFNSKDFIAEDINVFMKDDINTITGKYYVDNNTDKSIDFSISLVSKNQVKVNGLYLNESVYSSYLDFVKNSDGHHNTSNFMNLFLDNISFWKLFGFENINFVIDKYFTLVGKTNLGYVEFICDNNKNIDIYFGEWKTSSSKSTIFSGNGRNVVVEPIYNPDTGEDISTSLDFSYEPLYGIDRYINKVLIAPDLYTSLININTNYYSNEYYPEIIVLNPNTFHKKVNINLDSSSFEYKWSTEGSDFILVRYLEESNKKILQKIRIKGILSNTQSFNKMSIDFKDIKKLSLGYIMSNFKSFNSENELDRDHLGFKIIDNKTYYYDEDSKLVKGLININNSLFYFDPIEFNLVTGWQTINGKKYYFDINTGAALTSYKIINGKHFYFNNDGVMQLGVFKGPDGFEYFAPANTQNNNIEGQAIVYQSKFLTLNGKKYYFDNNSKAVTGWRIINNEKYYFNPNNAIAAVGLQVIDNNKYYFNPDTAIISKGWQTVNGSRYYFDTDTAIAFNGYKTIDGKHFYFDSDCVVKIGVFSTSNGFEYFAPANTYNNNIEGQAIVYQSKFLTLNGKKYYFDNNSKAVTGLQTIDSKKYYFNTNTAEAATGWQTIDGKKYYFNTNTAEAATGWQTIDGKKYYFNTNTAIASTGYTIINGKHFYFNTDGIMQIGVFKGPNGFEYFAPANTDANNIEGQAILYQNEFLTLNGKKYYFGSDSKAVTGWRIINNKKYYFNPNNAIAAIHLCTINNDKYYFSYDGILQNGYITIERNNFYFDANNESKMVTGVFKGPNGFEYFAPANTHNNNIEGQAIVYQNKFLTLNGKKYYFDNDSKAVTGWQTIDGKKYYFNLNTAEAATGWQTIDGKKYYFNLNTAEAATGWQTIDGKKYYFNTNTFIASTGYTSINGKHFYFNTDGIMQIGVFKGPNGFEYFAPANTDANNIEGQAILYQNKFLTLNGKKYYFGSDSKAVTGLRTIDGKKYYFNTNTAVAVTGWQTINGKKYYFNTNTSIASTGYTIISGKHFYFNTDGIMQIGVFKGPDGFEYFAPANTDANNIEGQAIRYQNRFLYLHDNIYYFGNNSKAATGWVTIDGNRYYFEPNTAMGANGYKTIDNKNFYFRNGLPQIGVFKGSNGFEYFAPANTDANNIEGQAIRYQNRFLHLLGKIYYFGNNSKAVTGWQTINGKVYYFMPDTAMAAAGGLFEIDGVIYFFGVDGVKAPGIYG

| Binder | TcdA IC50, TcdA-induced Vero cell cytotoxicity (WST-1) [nM] | maximal TcdA inhibition level [%] | fold increase in neutralization potency relative to parent A26.8 VHH [fold] |
| --- | --- | --- | --- |
| B1 | ~70 | ~60 | – |
| B2 | ~12 | ~70 | 6 |
| B3 | ~12 | ~70 | 6 |

These binders were tested against T1, Clostridium difficile toxin A (TcdA) (assay: SPR on immobilized TcdA).
Description: (§1) Before surface plasmon resonance (SPR) binding experiments, IMAC-purified VHHs were subjected to de-salting and further purification by size-exclusion chromatography (SEC). Approximately 500 μg of each VHH was injected over a Superdex 75 Increase 10/300 GL SEC column (GE Healthcare) in Biacore running buffer HBS-EP (10 mM HEPES pH 7.4, 150 mM NaCl, 3 mM EDTA, 0.005% (v/v) P20; GE Healthcare) under the control of an ÄKTA FPLC at 0.8 mL/min. Monomeric VHH fractions were collected and analyzed for binding to TcdA using a Biacore 3000 SPR instrument (GE Healthcare). Approximately 4,500 resonance units (RUs) of TcdA (List Biological Laboratories, Campbell, Calif.) were immobilized on a CM5 sensor chip (GE Healthcare) using the conditions previously described (Hussack et al, 2011). HBS-EP running buffer was used for all binding studies and regeneration of TcdA surfaces. Next, various dilution ranges of VHHs (as low as 10 nM-0.5 nM to as high as 5 μM-50 nM) were injected over immobilized TcdA at a flow rate of 40 μL/min with 120 s contact time and 600 s dissociation. Reference-subtracted sensorgrams were analyzed with BIAevaluation software (GE Healthcare) and fit to a 1:1 binding model. In cases where rapid kₒₙ and koff rate constants were observed, equilibrium dissociation constants (KDs) were determined by steady-state analysis.
The location of these mutations relative to the antigen epitope is illustrated in FIG. 2C.

| Binder | fold decrease in affinity relative to parent A26.8 VHH [fold] | fold change in kon relative to original A26.8 [fold] | fold improvement of KD relative to original A26.8 [fold] | fold improvement in KD relative to parent A26.8 VHH [fold] | fold improvement in binding affinity relative to parent A26.8 VHH [fold] | fold improvement in koff relative to parent [fold] | fold affinity improvement relative to parent A26.8 VHH [fold] | fold increase in kon relative to parent A26.8 VHH [fold] | fold improvement in kon relative to parent [fold] |
| --- | --- | --- | --- | --- | --- | --- | --- | --- | --- |
| B4 | ≤ 2.5 | – | – | – | – | – | – | – | – |
| B5 | ≤ 2.5 | – | – | – | – | – | – | – | – |
| B6 | ~10 | – | – | – | – | – | – | – | – |
| B2 | – | ~7 | 10 | – | – | – | – | – | – |
| B7 | – | – | – | > 2 | ~3 | ~2.5 | – | – | – |
| B3 | – | – | – | – | – | – | 8 | > 6 | – |
| B8 | – | – | – | > 2 | > 2 | – | – | – | – |
| B9 | ≤ 2.5 | – | – | – | – | – | – | – | – |
| B10 | – | – | – | > 2 | ~3 | – | – | – | ~2.5 |
| B11 | – | – | – | > 2 | > 2 | – | – | – | – |
| B12 | ≤ 2.5 | – | – | – | – | – | – | – | – |

The binders below were run against T1, Clostridium difficile toxin A (TcdA) (assay: SPR (Biacore 3000), VHH over immobilized TcdA, 1:1 fit).
Description: as §1

| Binder | Kd [nM] | koff [s⁻¹] | kon [M⁻¹ s⁻¹] |
| --- | --- | --- | --- |
| B13 | 4.13 | 0.0497 | 1.24e+07 |
| B4 | 33.6 | 0.0699 | 2.08e+06 |
| B5 | 19 | 0.0259 | 1.39e+06 |
| B6 | 165 | 0.0548 | 330000 |
| B2 | 1.98 | 0.0241 | 1.23e+07 |
| B7 | 5.32 | 0.014 | 2.7e+06 |
| B14 | 35 | 0.0561 | 1.61e+06 |
| B15 | 4.2 | 0.0226 | 5.45e+06 |
| B16 | 13.9 | 0.0268 | 1.95e+06 |
| B17 | 3.44 | 0.0291 | 8.61e+06 |
| B3 | 2.32 | 0.0193 | 8.33e+06 |
| B8 | 8.29 | 0.0199 | 2.47e+06 |
| B9 | 44 | 0.0711 | 1.62e+06 |
| B10 | 6.16 | 0.0269 | 4.75e+06 |
| B18 | 8.02 | 0.0265 | 3.31e+06 |
| B19 | 2.87 | 0.0296 | 1.04e+07 |
| B20 | 8.21 | 0.0396 | 4.96e+06 |
| B21 | 3.19 | 0.0467 | 1.47e+07 |
| B22 | 13.6 | 0.0262 | 1.94e+06 |
| B11 | 7.63 | 0.0198 | 2.7e+06 |
| B23 | 13.2 | 0.044 | 3.55e+06 |
| B24 | 38.9 | 0.0694 | 1.81e+06 |
| B25 | 16.3 | 0.0361 | 2.39e+06 |
| B26 | 13.5 | 0.0327 | 2.47e+06 |
| B27 | 4.84 | 0.0304 | 6.42e+06 |
| B28 | 13.7 | 0.0237 | 1.77e+06 |
| B12 | 21.3 | 0.0402 | 1.92e+06 |

These binders were tested against T1, Clostridium difficile toxin A (TcdA) (assay: SPR (Biacore 3000), VHH over immobilized TcdA; ratio of parent KD to mutant KD).
Description: as §1

| Binder | KD^WT/KD |
| --- | --- |
| B13 | 4.5 |
| B4 | 0.6 |
| B5 | 1 |
| B6 | 0.1 |
| B2 | 9.4 |
| B7 | 3.5 |
| B14 | 0.5 |
| B15 | 4.5 |
| B16 | 1.3 |
| B17 | 5.4 |
| B3 | 8.1 |
| B8 | 2.3 |
| B9 | 0.4 |
| B10 | 3 |
| B18 | 2.3 |
| B19 | 6.5 |
| B20 | 2.3 |
| B21 | 5.9 |
| B22 | 1.4 |
| B11 | 2.5 |
| B23 | 1.4 |
| B24 | 0.5 |
| B25 | 1.1 |
| B26 | 1.4 |
| B27 | 3.9 |
| B28 | 1.4 |
| B12 | 0.9 |

The binders below were run against T1, Clostridium difficile toxin A (TcdA) (assay: SPR (Biacore 3000), VHH over immobilized TcdA; binding free energy difference relative to parent VHH).
Description: as §1

| Binder | ΔΔG [kcal/mol] |
| --- | --- |
| B13 | -0.88 |
| B4 | 0.34 |
| B5 | 0.01 |
| B6 | 1.27 |
| B2 | -1.31 |
| B7 | -0.73 |
| B14 | 0.37 |
| B15 | -0.87 |
| B16 | -0.17 |
| B17 | -0.99 |
| B3 | -1.22 |
| B8 | -0.48 |
| B9 | 0.5 |
| B10 | -0.65 |
| B18 | -0.49 |
| B19 | -1.1 |
| B20 | -0.48 |
| B21 | -1.03 |
| B22 | -0.19 |
| B11 | -0.52 |
| B23 | -0.2 |
| B24 | 0.43 |
| B25 | -0.08 |
| B26 | -0.19 |
| B27 | -0.79 |
| B28 | -0.18 |
| B12 | 0.08 |
